# Positions count from the first letter of the chain named. Names may count otherwise.
# B1: PR002929 (bispecific antibody, human IgG1, lambda, L234A L235A)
# light: QAVVTQEPSLTVSPGGTVTLTCRSSTGAVTTSNYANWVQQKPGQAPRGLIGGTNKRAPWTPARFSGSLLGDKAALTLLGAQPEDEAEYFCALWYSNLWVFGGGTKLTVLGQPKAAPSVTLFPPSSEELQANKATLVCLISDFYPGAVTVAWKADSSPVKAGVETTTPSKQSNNKYAASSYLSLTPEQWKSHRSYSCQVTHEGSTVEKTVAPTECS
# heavy: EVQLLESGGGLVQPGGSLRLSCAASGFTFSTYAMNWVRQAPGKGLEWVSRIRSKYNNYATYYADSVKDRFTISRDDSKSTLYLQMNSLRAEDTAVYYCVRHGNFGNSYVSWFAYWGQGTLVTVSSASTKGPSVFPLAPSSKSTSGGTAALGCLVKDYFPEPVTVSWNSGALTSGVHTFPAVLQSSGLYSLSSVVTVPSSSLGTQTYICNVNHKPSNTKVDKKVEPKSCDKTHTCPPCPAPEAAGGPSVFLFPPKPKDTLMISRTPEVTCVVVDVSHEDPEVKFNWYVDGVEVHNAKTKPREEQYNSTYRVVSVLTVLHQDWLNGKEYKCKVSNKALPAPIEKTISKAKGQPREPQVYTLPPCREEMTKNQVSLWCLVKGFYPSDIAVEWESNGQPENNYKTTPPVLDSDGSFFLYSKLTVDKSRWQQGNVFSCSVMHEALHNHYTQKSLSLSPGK
# chain: EVQLVETGGGLIQPGGSLRLSCAASGFTVSDNYMTWVRQAPGKGLEWVSVIFSGGNTYYADSVKGRFTISRDNAKNTLYLQMNSLRAEDTALYYCARRNYDDTRGTDVFDIWGQGTMVTVSSASEPKSSDKTHTCPPCPAPEAAGGPSVFLFPPKPKDTLMISRTPEVTCVVVDVSHEDPEVKFNWYVDGVEVHNAKTKPREEQYNSTYRVVSVLTVLHQDWLNGKEYKCKVSNKALPAPIEKTISKAKGQPREPQVCTLPPSREEMTKNQVSLSCAVKGFYPSDIAVEWESNGQPENNYKTTPPVLDSDGSFFLVSKLTVDKSRWQQGNVFSCSVMHEALHNHYTQKSLSLSPGK
# B2: PR002935 (bispecific antibody, human IgG1, lambda, L234A L235A)
# light: B1 light
# heavy: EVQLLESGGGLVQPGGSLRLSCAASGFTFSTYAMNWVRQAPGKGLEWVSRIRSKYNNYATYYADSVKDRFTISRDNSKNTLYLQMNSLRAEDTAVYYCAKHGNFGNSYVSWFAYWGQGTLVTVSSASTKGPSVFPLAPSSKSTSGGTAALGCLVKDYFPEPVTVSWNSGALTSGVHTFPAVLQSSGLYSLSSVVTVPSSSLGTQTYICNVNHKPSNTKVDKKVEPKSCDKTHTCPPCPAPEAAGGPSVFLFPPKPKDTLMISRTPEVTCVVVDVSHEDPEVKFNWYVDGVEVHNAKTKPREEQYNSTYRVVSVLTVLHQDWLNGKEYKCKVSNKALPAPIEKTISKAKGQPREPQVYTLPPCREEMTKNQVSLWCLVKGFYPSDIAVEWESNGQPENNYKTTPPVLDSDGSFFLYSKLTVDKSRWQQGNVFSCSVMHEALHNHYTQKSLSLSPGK
# chain: B1 chain
# B3: PR001990 (bispecific antibody, human IgG1, lambda, L234A L235A)
# light: B1 light
# heavy: EVQLLESGGGLVQPGGSLRLSCAASGFTFNTYAMNWVRQAPGKGLEWVSRIRSKYNNYATYYADSVKDRFTISRDDSKSTLYLQMNSLRAEDTAVYYCVRHGNFGNSYVSWFAYWGQGTLVTVSSASTKGPSVFPLAPSSKSTSGGTAALGCLVKDYFPEPVTVSWNSGALTSGVHTFPAVLQSSGLYSLSSVVTVPSSSLGTQTYICNVNHKPSNTKVDKKVEPKSCDKTHTCPPCPAPEAAGGPSVFLFPPKPKDTLMISRTPEVTCVVVDVSHEDPEVKFNWYVDGVEVHNAKTKPREEQYNSTYRVVSVLTVLHQDWLNGKEYKCKVSNKALGAPIEKTISKAKGQPREPQVYTLPPCREEMTKNQVSLWCLVKGFYPSDIAVEWESNGQPENNYKTTPPVLDSDGSFFLYSKLTVDKSRWQQGNVFSCSVMHEALHNHYTQKSLSLSPGK
# chain: B1 chain with P238G
# B4: PR007164, PD-L1×4-1BB bispecific antibody molecule of Fab-HCAb symmetric structure (bispecific antibody, human IgG1)
# chain 1: EVQLVESGGGLVQPGGSLRLSCAASGFTFSSYWMSWVRQAPGKGLEWVANIKQEGSEKYYVDSVKGRFTISRDNAKNSLYLQMNSLRAEDTAVYYCARDRAVAGAFDIWGQGTMVTVSSASTKGPSVFPLAPSSKSTSGGTAALGCLVKDYFPEPVTVSWNSGALTSGVHTFPAVLQSSGLYSLSSVVTVPSSSLGTQTYICNVNHKPSNTKVDKKVEPKSC
# chain 2: not shown
# notes: Structure 1 Fab(CL)-VH-Fc; Fab of PR000265, VH of PR001760; no first linker, human IgG1 hinge (C220S); human IgG1 (L234A, L235A)
# B5: PR003549, PD-L1×4-1BB bispecific antibody molecule of IgG-VH tetravalent symmetric structure (bispecific antibody)
# light: DIQMTQSPSTLSASVGDRVTVTCRASQSIYIWLAWYQQKPGKAPNLLIYKASSLETGVPSRFSGSGSGTEFTLTISSLQPDDFATYYCQQYYGSSRTFGQGTKVEIKRTVAAPSVFIFPPSDEQLKSGTASVVCLLNNFYPREAKVQWKVDNALQSGNSQESVTEQDSKDSTYSLSSTLTLSKADYEKHKVYACEVTHQGLSSPVTKSFNRGEC
# heavy: EVQLVESGGGLVQPGGSLRLSCAASGFTFSSYWMSWVRQAPGKGLEWVANIKQEGSEKYYVDSVKGRFTISRDNAKNSLYLQMNSLRAEDTAVYYCARDRAVAGAFDIWGQGTMVTVSSASTKGPSVFPLAPSSKSTSGGTAALGCLVKDYFPEPVTVSWNSGALTSGVHTFPAVLQSSGLYSLSSVVTVPSSSLGTQTYICNVNHKPSNTKVDKKVEPKSCDKTHTCPPCPAPEAAGGPSVFLFPPKPKDTLMISRTPEVTCVVVDVSHEDPEVKFNWYVDGVEVHNAKTKPREEQYNSTYRVVSVLTVLHQDWLNGKEYKCKVSNKALGAPIEKTISKAKGQPREPQVYTLPPSREEMTKNQVSLTCLVKGFYPSDIAVEWESNGQPENNYKTTPPVLDSDGSFFLYSKLTVDKSRWQQGNVFSCSVMHEALHNHYTQKSLSLSPGEPKSSDKTHTPPPPPRTEVQLLESGGGLVQLGGSLRLSCAASGFTFSRYAMTWVRQAPEKGLEWVSSISGSGDDTYYGDSVKGRFTISRDNSQNTVYLQMNSLRAEDTAVYFCAKEKAGTTGDYYYNVDVWGQGTTVTVSS
# notes: Structure 5; IgG PR000265, VH of PR001758 at C-terminus of heavy chain; linker H1_15-RT; human IgG1 (L234A, L235A, P329G)
# B6: PR007163, PD-L1×4-1BB bispecific antibody molecule of Fab-HCAb symmetric structure (bispecific antibody, human IgG1)
# light: B5 light
# chain: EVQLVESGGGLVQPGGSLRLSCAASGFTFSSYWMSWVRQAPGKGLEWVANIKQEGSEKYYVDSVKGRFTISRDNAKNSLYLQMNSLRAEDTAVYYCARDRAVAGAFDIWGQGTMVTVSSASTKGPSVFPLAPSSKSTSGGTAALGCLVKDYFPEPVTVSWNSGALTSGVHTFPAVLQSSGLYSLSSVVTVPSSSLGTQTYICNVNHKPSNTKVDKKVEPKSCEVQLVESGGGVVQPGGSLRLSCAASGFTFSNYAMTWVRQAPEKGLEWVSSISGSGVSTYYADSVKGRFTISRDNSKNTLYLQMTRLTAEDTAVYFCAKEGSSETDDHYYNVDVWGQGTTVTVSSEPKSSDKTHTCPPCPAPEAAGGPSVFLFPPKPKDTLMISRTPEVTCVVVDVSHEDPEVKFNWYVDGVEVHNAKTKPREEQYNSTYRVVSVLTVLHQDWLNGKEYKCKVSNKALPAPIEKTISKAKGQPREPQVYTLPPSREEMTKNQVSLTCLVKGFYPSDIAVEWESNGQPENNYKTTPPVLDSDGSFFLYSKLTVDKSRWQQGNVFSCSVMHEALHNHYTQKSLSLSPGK
# notes: Structure 2 Fab(CH1)-VH-Fc; Fab of PR000265, VH of PR001760; no first linker, human IgG1 hinge (C220S); human IgG1 (L234A, L235A)
# B7: PR003550, PD-L1×4-1BB bispecific antibody molecule of IgG-VH tetravalent symmetric structure (bispecific antibody)
# light: B5 light
# heavy: EVQLVESGGGLVQPGGSLRLSCAASGFTFSSYWMSWVRQAPGKGLEWVANIKQEGSEKYYVDSVKGRFTISRDNAKNSLYLQMNSLRAEDTAVYYCARDRAVAGAFDIWGQGTMVTVSSASTKGPSVFPLAPSSKSTSGGTAALGCLVKDYFPEPVTVSWNSGALTSGVHTFPAVLQSSGLYSLSSVVTVPSSSLGTQTYICNVNHKPSNTKVDKKVEPKSCDKTHTCPPCPAPEAAGGPSVFLFPPKPKDTLMISRTPEVTCVVVDVSHEDPEVKFNWYVDGVEVHNAKTKPREEQYNSTYRVVSVLTVLHQDWLNGKEYKCKVSNKALGAPIEKTISKAKGQPREPQVYTLPPSREEMTKNQVSLTCLVKGFYPSDIAVEWESNGQPENNYKTTPPVLDSDGSFFLYSKLTVDKSRWQQGNVFSCSVMHEALHNHYTQKSLSLSPGEPKSSDKTHTPPPPPRTEVQLVESGGGVVQPGGSLRLSCAASGFTFSNYAMTWVRQAPEKGLEWVSSISGSGVSTYYADSVKGRFTISRDNSKNTLYLQMTRLTAEDTAVYFCAKEGSSETDDHYYNVDVWGQGTTVTVSS
# notes: Structure 5; IgG PR000265, VH of PR001760 at C-terminus of heavy chain; linker H1_15-RT; human IgG1 (L234A, L235A, P329G)
# B8: Anti-4-1BB monoclonal antibody urelumab analog, hIgG4 (S228P) (antibody, V domains shown)
# VH: QVQLQQWGAGLLKPSETLSLTCAVYGGSFSGYYWSWIRQSPEKGLEWIGEINHGGYVTYNPSLESRVTISVDTSKNQFSLKLSSVTAADTAVYYCARDYGPGNYDWYFDLWGRGTLVTVSS
# VL: EIVLTQSPATLSLSPGERATLSCRASQSVSSYLAWYQQKPGQAPRLLIYDASNRATGIPARFSGSGSGTDFTLTISSLEPEDFAVYYCQQRSNWPPALTFGGGTKVEIKR
# B9: HER2xCTLA4 bispecific antibody molecule PR000916 (bispecific antibody, human IgG1, kappa)
# light: not shown
# heavy: not shown
# chain: EVQLVESGGGLIQPGGSLRLSCAVSGFTVSKNYMSWVRQAPGKGLEWVSVVYSGGSKTYADSVKGRFTISRDNSKNTLYLQMNSLRAEDTAVYYCARAVPHSPSSFDIWGQGTMVTVSSEPKSSDKTHTCPPCPAPELLGGPSVFLFPPKPKDTLMISRTPEVTCVVVDVSHEDPEVKFNWYVDGVEVHNAKTKPREEQYNSTYRVVSVLTVLHQDWLNGKEYKCKVSNKALPAPIEKTISKAKGQPREPQVCTLPPSREEMTKNQVSLSCAVKGFYPSDIAVEWESNGQPENNYKTTPPVLDSDGSFFLVSKLTVDKSRWQQGNVFSCSVMHEALHNHYTQKSLSLSPGK
# notes: Structure 11 Fab-Fc-VH (bivalent asymmetric); PR000210 Fab (normal), one PR000184 VH
# B10: HER2xCTLA4 bispecific antibody molecule PR000917 (bispecific antibody, human IgG1, kappa)
# light: not shown
# heavy: not shown
# chain: B9 chain with S143D, I236E
# notes: Structure 11 Fab-Fc-VH; PR000210 Fab (normal), one PR000184 VH; DE: S239D, I332E
# What was measured:
# [1] = target: T1, human BCMA (human, UniProt Q02223 1-184); assay: FACS on NCI-H929 cells
# T1 construct: whole, on cells; also called hBCMA; TNFRSF17
# T1 sequence (looked up): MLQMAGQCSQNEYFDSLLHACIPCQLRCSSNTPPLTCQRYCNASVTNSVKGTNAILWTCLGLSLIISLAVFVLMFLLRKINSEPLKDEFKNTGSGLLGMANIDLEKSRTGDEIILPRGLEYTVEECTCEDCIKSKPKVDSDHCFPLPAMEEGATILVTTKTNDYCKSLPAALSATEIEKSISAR
# [2] = target: T2, cynomolgus monkey BCMA (cynomolgus monkey, UniProt A0A2K5UD97 1-183); assay: FACS on HEK293T/cyno BCMA cells
# T2 construct: whole, on cells; also called cyno BCMA
# T2 sequence (A0A2K5UD97 entry or part of it): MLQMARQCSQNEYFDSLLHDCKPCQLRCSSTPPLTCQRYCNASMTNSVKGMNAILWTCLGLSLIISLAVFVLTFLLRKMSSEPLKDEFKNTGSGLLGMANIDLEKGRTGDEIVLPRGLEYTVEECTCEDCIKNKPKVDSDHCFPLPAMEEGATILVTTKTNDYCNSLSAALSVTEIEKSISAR
# [3] = target: T1, human BCMA; assay: FACS on HEK293T/hBCMA cells, Experiment 1
# [4] = target: T3, human PD-L1 (programmed death ligand 1) (human, UniProt Q9NZQ7 19-290); assay: flow cytometry (FACS) on CHO-K1/hPDL1 cells, Experiment 3
# T3 construct: whole, on cells; also called hPDL1; CD274
# T3 sequence (Q9NZQ7 19-290): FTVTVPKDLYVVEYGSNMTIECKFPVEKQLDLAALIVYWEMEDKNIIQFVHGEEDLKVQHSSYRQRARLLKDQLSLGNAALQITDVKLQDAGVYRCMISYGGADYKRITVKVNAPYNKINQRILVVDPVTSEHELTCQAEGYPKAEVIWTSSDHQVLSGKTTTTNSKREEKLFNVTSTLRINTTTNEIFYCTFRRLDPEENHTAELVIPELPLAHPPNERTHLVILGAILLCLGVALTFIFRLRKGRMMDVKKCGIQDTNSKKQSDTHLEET
# [5] = target: T4, human 4-1BB (tumor necrosis factor receptor superfamily member 9) (human, UniProt Q07011 24-255); assay: cell-based or functional assay
# T4 sequence (Q07011 24-255): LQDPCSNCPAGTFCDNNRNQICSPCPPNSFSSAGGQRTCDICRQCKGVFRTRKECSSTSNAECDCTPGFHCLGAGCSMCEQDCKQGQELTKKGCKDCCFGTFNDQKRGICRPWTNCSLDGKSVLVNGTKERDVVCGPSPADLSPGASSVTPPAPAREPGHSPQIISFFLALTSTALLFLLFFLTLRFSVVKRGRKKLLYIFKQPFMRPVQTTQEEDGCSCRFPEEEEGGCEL
# [6] = target: T4, human 4-1BB (tumor necrosis factor …); assay: flow cytometry (FACS) on CHO-K1/hu 4-1BB cells
# [7] = target: T3, human PD-L1 (programmed death ligand 1); assay: flow cytometry (FACS) on CHO-K1/hPDL1 cells, Experiment 1
# [8] = target: T5, cynomolgus monkey 4-1BB (cynomolgus monkey); assay: flow cytometry (FACS) on CHO-K1/cyno 4-1BB cells, Experiment 1
# T5 construct: whole, on cells; also called cyno 4-1BB
# [9] = target: T6, human CTLA4 on CHO-K1/hCTLA4 cells (human, UniProt P16410 36-223); assay: flow cytometry on CHO-K1/hCTLA4 cells, Experiment 1
# T6 construct: whole, on cells; CHO-K1 cell line highly expressing human CTLA4; also called human CTLA4 cell
# T6 sequence (P16410 36-223): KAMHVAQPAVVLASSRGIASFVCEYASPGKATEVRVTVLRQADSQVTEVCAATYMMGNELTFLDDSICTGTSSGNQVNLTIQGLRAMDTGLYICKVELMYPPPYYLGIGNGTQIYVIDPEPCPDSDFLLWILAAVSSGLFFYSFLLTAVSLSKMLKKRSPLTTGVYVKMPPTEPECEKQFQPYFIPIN
binder,measurement,setting,value
B1,EC50,[1],50.2 nM
same,Maximum MFI,[2],13800
same,EC50,[3],9.02 nM
same,Maximum MFI,[3],17600
B2,Maximum MFI,[1],3840
same,Maximum MFI,[2],22000
same,EC50,[3],14.8 nM
same,Maximum MFI,[3],23900
B3,Maximum MFI,[1],1840
same,Maximum MFI,[2],9170
same,Maximum MFI,[3],13400
B4,EC50,[4],1.93 nM
same,Maximum MFI,[4],51400 MFI
B5,"IFN-γ EC50 (nM), T cells with MDA-MB-231 target cells",[5],0.0695 nM
same,"IL-2 EC50 (nM), T cells with MDA-MB-231 target cells",[5],0.12 nM
same,EC50,[6],1.9 nM
same,Maximum MFI,[6],1550 MFI
same,EC50,[7],1.56 nM
same,Maximum MFI,[7],2220 MFI
same,EC50,[8],1.86 nM
same,Maximum MFI,[8],4980 MFI
B6,EC50,[4],2.26 nM
same,Maximum MFI,[4],51300 MFI
B7,EC50,[7],1.11 nM
same,Maximum MFI,[7],2250 MFI
same,EC50,[8],1.32 nM
same,Maximum MFI,[8],5360 MFI
B8,"IFN-γ EC50 (nM), T cells with MDA-MB-231 target cells",[5],0.536 nM
same,"IL-2 EC50 (nM), T cells with MDA-MB-231 target cells",[5],2.94 nM
B9,EC50,[9],4.68 nM
same,Maximum MFI,[9],151 MFI
B10,EC50,[9],9.8 nM
same,Maximum MFI,[9],142 MFI
